From the supplement of paper PMC7125110
± gives the standard error. Variants at the floor of the assay were thinned out.

B1: glmS ribozyme (parent)
chain: AUAAAAGCGCCAGAACUACAGAAAUGUAGUUGACGAGGAGGAGGUUUAUCGAAUUUUCGGCGGAUGCCUCCAAA

Variants of: B1
Experiment: self-cleavage kobs at 10000 uM GlcN6P; higher = faster cleavage; RNA array
Settings: with glucosamine-6-phosphate
Procedure, shortened: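 Tiles of sequenced MiSeq chips were imaged over ~14 h at 37 °C. On them, barcoded ribozyme variants had been transcribed in situ by E. coli RNA polymerase and were tracked via a hybridised Cy3 probe while glucosamine-6-phosphate (40 μM to 10 mM) in HEPES/KCl/Mg(OAc)2 buffer flowed in. Per-tile medians, normalised to baseline and to non-cleaving reference variants, were fit to one- or two-exponential decays for kobs, and weighted Michaelis–Menten fits gave kcat and KM.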

Variant	self-cleavage kobs at 10000 uM GlcN6P [s⁻¹]
AUAAAUGCGCAAGAACUACAGAAAUGUAGUUGACGAGGGGGAGGUUUAUCGAAUUUUCGGCGGAUGCCUCCAAA [A6U C11A A39G]	< 1e-05
AUAAAAGCGCCAGAGCUACAGAAAUGUAGUUGACGAGGAGGAGGUGUAUCGAAUUUUCGGCGGAUGGCUCCAAA [A15G U46G C67G]	0.000339 ± 6e-05
AUAAAAGCGCCAUAACUACAGAAAUGUAGUGGACGAGGAGGAGGUUUAUCGAAUUUUCGGCGGGUGCCUCCAAA [G13U U31G A64G]	0.00021 ± 5.2e-05
AUAAAAGCGCCAGAACUACAGAAAUGUACUUUACGAGGAGGAGGUUUAUCGAAUUUUCGGCGGAUGCCUACAAA [G29C G32U C70A]	0.000104 ± 2.2e-05
AUAAAAGCGCCAGAACUACAGAAAUGUAGUUGACGAGGUGGAGGUUUAUCGAAUCUUCGGCGGGUGCCUCCAAA [A39U U55C A64G]	0.0229 ± 0.0073
AUAAAAGCGCCUGGACUACAGAAAUGUAGUUGACGAGGAGGAGGUUUAUCGAAUUUACGGCGGAUGCCUCCAAA [A12U A14G U57A]	0.000643 ± 0.00011
AUAAAAGCGCCAGAACUACAGAAAUGUAGUUGACGAGGAGGAGGCUUAUCGAAUUUUCGGCGGAGGUCUCCAAA [U45C U65G C67U]	0.000112 ± 2.2e-05
AUAAAAGCGCCAGAACUACAGAAAUGUAGUUGACGAGGAGGAGGUUUAGCGAAUUUUCGGGGGAUGCCUCCAAA [U49G C61G]	< 1e-05
AUAAAAACGCCAGAACUACAGAAAUGUACUUUACGAGGAGGAGGUUUAUCGAAUUUCAGGCGGAUGCCUCCAAA [G7A G29C G32U U57C C58A]	< 1e-05
AUAAAAGCGCCAUAACUACAGAAAUGUAGUUGACGAGGAGGAGUGUUAUCGAAUUUUAGGCGGAUGCCUCGAAA [G13U G44U U45G C58A C71G]	< 1e-05
AUAAAAGCGCCAGAACUACAGAAAUGUAGUUGACGAGGAGGAGGUUUUUCGAAUUUUCUGCGGGUGCCUCCAAA [A48U G59U A64G]	< 1e-05
AUAAAAGCGCCAGAACUACAGAAAUGUAGUUGACGAGGAGUUGGUUUAUCGAAUCUUCGGCGGAUGCCUGCAAA [G41U A42U U55C C70G]	0.000238 ± 4.7e-05
AUAAAAGCGCCAGAAAUACAGAAAUGUAUUUGACGAGGAGGAGGUUUAUCGAAUUUUAGGCGGAUGCCUCCAAA [C16A G29U C58A]	0.000415 ± 0.00011
AUAAAAGCGCCAUAACUACAGAAAUGUAGUUGACGUGGAGGAGUUUUAUCGAAUUUUCGGCGGAUGCCUCCAAA [G13U A36U G44U]	< 1e-05
AUAAAAGCGCCAGAACUACAGAAAUGUAGCUGACUAGGAGGAUGUUUAUCGAAUUUUCGGCGGAUUCCUCCAAA [U30C G35U G43U G66U]	< 1e-05
AUAAAAGCGCCAGAACUACAGAAAUGUAGUUGACGAGGAGGAAGUUUAUCGAAUGUACGGCGGAGGCCUCCAAA [G43A U55G U57A U65G]	< 1e-05
AUAAAAGCGCCAGAACUACAGAAAUGUAGUUGACGAGGAGGAGGUUUCUCGAAUUUUAGGUGGAUGCCUCCAAA [A48C C58A C61U]	< 1e-05
AUAAAAGCGCCAGAACUACAGAAAUGUAGUAGACGAGGCGGAGGUUUAUCGAAUUGUCGGCGGAUGCCUCCAAA [U31A A39C U56G]	0.00147 ± 0.0004
AUAAAAGCGCCAGAACUACAGAAAUGUAGUUUACGAGGAGGAGGUUUAUCGAAUAUUGGGCGGAUGCCUCCAAA [G32U U55A C58G]	0.000755 ± 0.00011

Variant	self-cleavage kobs at 10000 uM GlcN6P [s⁻¹]
AUAAAAGCGCCAGAACUACAGAAAUGUAGUUGAAGAGGAGGAGGUUUAUCAAAUUUUCGGCGGAUGGCUACAAA [C34A G51A C67G C70A]	< 1e-05
AUAAAAGCGCCACAACUACAGAAAUGUAGUUGACGAGGAGGAGGUUUAUCGAAUUUUCGGCGGAUGUGUCCAAA [G13C C67U C68G]	< 1e-05
AUAAAAGCGCCAGAACUACAGAAAUGUAGUUGACGAGGAGGAGGUUUAUCGAAUUUACGGCGGGUGCCUCCAAA [U57A A64G]	0.000214 ± 4.6e-05
AUAAAAGAGCCAGAACUACAGAAAUGUAGUUGACGAGGAGGAGGUUUUUCGAAUUUUCGGCGGAUUCCUCCAAA [C8A A48U G66U]	< 1e-05
AUAAAAGCGCCUGAACUACAGAAAUGUAGUUGACGAGGAGGUGGUUUAUCGAAUUUUCGGCGGAUGCCUUCAAA [A12U A42U C70U]	0.00014 ± 3.1e-05
AUAAAAGCGCCAGAACUACAGAAAUGUAGUUGACGAGGAGGAGGUUUAUCGAAAUUUCGGCGGAUGUCUACAAA [U54A C67U C70A]	4.02e-05 ± 1.6e-05
AUAAAAGUGCCAGACCUACAGAAAUGUAGUUUACGUGGCGGAGGUUUUUCGAAUUUUCGGCGGAUGCCUCCAAA [C8U A15C G32U A36U A39C A48U]	< 1e-05
AUAAAAGCGCCGGUACUACAGAAAUGUAGUUGACGAGGAGGAGGUUUAUCGAAUUUUAGGCGGAUGCCUCCAAA [A12G A14U C58A]	0.000276 ± 5.2e-05
AUAAAAGCGCCAGAACUACAGAAAUGUAGUGGACGUGGACGAGGUUUAUCGAAUUGUCGGCGGAUACCUCCAAA [U31G A36U G40C U56G G66A]	< 1e-05
AUAAAAGCGCCAGAACUACAGAAAUGUAGUUGACGAGGAAGAGGUUUAUCGAAUUUUCGGCGGAGGCCUCUAAA [G40A U65G C71U]	0.0033 ± 0.00061
AUAAAAGAGCCAGAACUACAGAAAUGUAGUUGACGAGAACGAGGUUUAUCGAAUUUCCGGCGGAUGCCUCCAAA [C8A G38A G40C U57C]	< 1e-05
CAUAAAAGCGCAGAAGUACAGAAAUGUAGUUGACGAGGAGGAGGUUUAUCGAAUUUUCGGCGGAUGCCUCCAAA [A1C U2A A3U G7A C8G G9C C10G C16G]	< 1e-05
AUAAAAGCGCAAGAAGUACAGAAAUGUAGUUGACGAGGAGGAGGUUUAUCGAAUUUUUGGCGGAUGCAUCCAAA [C11A C16G C58U C68A]	0.000263 ± 8.9e-05
AUAAAAGGACCAGAACUACAGAAAUGUAGUUGACAUGGAGGAGGUUUAUCGAAUUUUCGGCGGAUGCCUCCAAA [C8G G9A G35A A36U]	< 1e-05
AUAAAAGCGCCAGAACUACAGAAAUGUAGUUGGCGGGGUGGAGGUUUAUCGAGUUUUCGGCGGAUGCCUCCAAA [A33G A36G A39U A53G]	< 1e-05
AUAAAAGCGCCAGAACUACAGAAAUGUAGUUGACGAAGGGGAGGUUUAUCGAAGAUUCGGCGGAUGCCUCCAAA [G37A A39G U54G U55A]	0.00276 ± 0.00061
AUAAAAUCGCCAGAACUACAGAAAUGUAGUUGACGAGGAGGUGGUUUAUCGAAUUUUCGGCGGAUGGCUCCAAA [G7U A42U C67G]	< 1e-05
AUAAAAGCGCCAGAACUACAGAAAUGUAGUUGACGAGGAAGAGGCUUAUCGAAUUUUCGGCGGAGGGCUCCAAA [G40A U45C U65G C67G]	0.00034 ± 0.00012
